Values quoted from earlier work as cited in patent US20140322315A1, “CYSTEAMINE AND/OR CYSTAMINE FOR TREATING ISCHEMIC INJURY” (The Regents of the University of California, priority 2011, published 2014).

Tested on: acute ischemic stroke

B1: tPA: tissue plasminogen activator, FDA approved 1996 as therapy for acute ischemic stroke (protein, UniProt P00750 36-562, looked up)
Tissue-type plasminogen …: SYQVICRDEKTQMIYQQHQSWLRPVLRSNRVEYCWCNSGRAQCHSVPVKSCSEPRCFNGGTCQQALYFSDFVCQCPEGFAGKCCEIDTRATCYEDQGISYRGTWSTAESGAECTNWNSSALAQKPYSGRRPDAIRLGLGNHNYCRNPDRDSKPWCYVFKAGKYSSEFCSTPACSEGNSDCYFGNGSAYRGTHSLTESGASCLPWNSMILIGKVYTAQNPSAQALGLGKHNYCRNPDGDAKPWCHVLKNRRLTWEYCDVPSCSTCGLRQYSQPQFRIKGGLFADIASHPWQAAIFAKHRRSPGERFLCGGILISSCWILSAAHCFQERFPPHHLTVILGRTYRVVPGEEEQKFEVEKYIVHKEFDDDTYDNDIALLQLKSDSSRCAQESSVVRTVCLPPADLQLPDWTECELSGYGKHEALSPFYSERLKEAHVRLYPSSRCTSQHLLNRTVTDNMLCAGDTRSGGPQANLHDACQGDSGGPLVCLNDGRMTLVGIISWGLGCGQKDVPGVYTKVTNYLDWIRDNMRP
- improvement in clinical outcome (some, but not all, of the controlled trials in acute ischemic stroke): 30-55%
- complete resolution of symptoms, share of the time (thrombolytic therapy with tPA): less than 40%
